± gives the uncertainty stated by the source.
Test: self-splicing fitness, log relative to wild type (ln ratio); higher = more splicing; Tetrahymena group I intron in knt gene, E. coli kanamycin selection, DiMSum; sequences stand for … in CUCUCU…GGAGGGAAAAGUUAUCAGGCAUGCACCUGGUAGCUAGUCUUUAAACCAAUAGAUUGCAUCGGUUUAAAAGGCAAGACCGUCAAAUUGCGGGAAAGGGGUCAACAGCCGUUCAGUACCAAGUCUCAGGGGAAACUUUGAGAUGGCCUUGCAAAGGGUAUGGUAAUAAGCUGACGGACAUGGUCCUAACCACGCAGCCAAGUCCUAAGUCAACAGAUCUUCUGUUGAUAUGGAUGCAGUUCACAGACUAAAUGUCGGUCGGGGAAGAUGUAUUCUUCUCAUAAGAUAUAGUCGGACCUCUCCUUAAUGGGAGCUAGCGGAUGAAGUGAUGCAACACUGGAGCCGCUGGGAACUAAUUUGUAUGCGAAAGUAUAUUGAUUAGUUUUGGAGUACUCGUGGUCG
Outline: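 The eight P1ex-region nucleotides of an intron in the knt kanamycin-resistance gene on pET-22b(+) were all randomised and the library put into E. coli BL21(DE3). Six replicate transformations were grown overnight at 37°C or 30°C on LB agar with or without 25 μg/mL kanamycin, together with 100 μg/mL carbenicillin, 50 μM IPTG and 0.2% rhamnose. Colonies were pooled and amplicon-sequenced on an Illumina HiSeq 2500. Fitness from DiMSum is the error-weighted combination of wild-type-normalised replicate fold changes, kanamycin over none.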

| Sequence | self-splicing fitness (ln) (30 °C) | self-splicing fitness (ln) (37 °C) |
| --- | --- | --- |
| CUCCAGCAAUAUUACGUUUU | -3.38 ± 0.12 | -3.12 ± 0.15 |
| UUCAAGCAAUAUUACGGCGG | -0.903 ± 0.076 | -0.416 ± 0.1 |
| GGGAAGCAAUAUUACGUCUG | 0.292 ± 0.099 | -0.174 ± 0.12 |
| AUGCAGCAAUAUUACGACUA | -0.708 ± 0.12 | -0.187 ± 0.11 |
| CCUUAGCAAUAUUACGUCAC | -3.46 ± 0.26 | -2.21 ± 0.29 |
| AUGUAGCAAUAUUACGAAUA | -2.75 ± 0.26 | -1.22 ± 0.21 |
| ACGGAGCAAUAUUACGCUUA | -2.71 ± 0.17 | -1.03 ± 0.11 |
| UAUAAGCAAUAUUACGAGCG | -0.0858 ± 0.098 | -0.062 ± 0.1 |
| UCACAGCAAUAUUACGUUCC | -3.38 ± 0.21 | -1.47 ± 0.22 |
| UAAGAGCAAUAUUACGCGAU | -3.86 ± 0.26 | -2.56 ± 0.24 |
| UUUUAGCAAUAUUACGAGGA | -1.04 ± 0.17 | -1.3 ± 0.21 |
| CAGUAGCAAUAUUACGCCCU | – | -1.3 ± 0.32 |
| AUAAAGCAAUAUUACGUAUC | -3.77 ± 0.18 | -2.02 ± 0.19 |
| AUUGAGCAAUAUUACGUUGC | -2.94 ± 0.33 | -1.64 ± 0.18 |
| GCUAAGCAAUAUUACGCUCC | -1.01 ± 0.13 | -1.07 ± 0.18 |
| GGUAAGCAAUAUUACGCUUG | -3.34 ± 0.38 | -1.7 ± 0.34 |
| CUGGAGCAAUAUUACGACGU | – | -1.09 ± 0.2 |
| AAAGAGCAAUAUUACGUAUU | -3.03 ± 0.2 | -1.2 ± 0.14 |
| GAUGAGCAAUAUUACGGGCA | -1.87 ± 0.2 | -1.88 ± 0.28 |
| AUAAAGCAAUAUUACGCUUA | -1.27 ± 0.1 | 0.137 ± 0.12 |
| AAAGAGCAAUAUUACGUUAC | -2.94 ± 0.31 | – |
| UCAGAGCAAUAUUACGAUGG | -2.97 ± 0.21 | -1.33 ± 0.2 |
| GUCCAGCAAUAUUACGCCAU | -2.78 ± 0.15 | -1.48 ± 0.14 |
| UCAGAGCAAUAUUACGUAAC | -2.5 ± 0.26 | – |
| CCUAAGCAAUAUUACGCAUA | -4.08 ± 0.28 | -2.77 ± 0.27 |
| CCCCAGCAAUAUUACGAGAA | -3.4 ± 0.29 | -2.37 ± 0.23 |

| Sequence | self-splicing fitness (ln) (30 °C) | self-splicing fitness (ln) (37 °C) |
| --- | --- | --- |
| GAAGAGCAAUAUUACGCGUC | -2.98 ± 0.42 | -2.5 ± 0.48 |
| AUGGAGCAAUAUUACGUUAC | -3.1 ± 0.25 | – |
| GAGUAGCAAUAUUACGAACA | – | -1.28 ± 0.34 |
| UAGCAGCAAUAUUACGACGG | -0.73 ± 0.09 | -0.313 ± 0.12 |
| CCUCAGCAAUAUUACGUGAA | -3.66 ± 0.2 | -2.22 ± 0.2 |
| UCUAAGCAAUAUUACGUGUU | -3.44 ± 0.14 | -2.81 ± 0.13 |
| UGGCAGCAAUAUUACGUUCG | -0.337 ± 0.068 | 0.283 ± 0.096 |
| UCAUAGCAAUAUUACGGUAC | – | -3.21 ± 0.33 |
| AUUAAGCAAUAUUACGCACG | -1.37 ± 0.16 | -0.648 ± 0.17 |
| UAGUAGCAAUAUUACGGUAA | -2.68 ± 0.3 | -2.18 ± 0.29 |
| AAUUAGCAAUAUUACGUAGU | -2.9 ± 0.16 | -0.462 ± 0.1 |
| GUGCAGCAAUAUUACGCACU | -3.41 ± 0.28 | -2.3 ± 0.37 |
| GUACAGCAAUAUUACGGUUC | -1.29 ± 0.074 | -0.703 ± 0.08 |
| GCUCAGCAAUAUUACGCUAG | -1.03 ± 0.075 | -0.659 ± 0.11 |
| UGAAAGCAAUAUUACGGGCC | -3.48 ± 0.23 | -1.32 ± 0.22 |
| UUGAAGCAAUAUUACGGCCG | 0.53 ± 0.14 | 0.318 ± 0.22 |
| UAUCAGCAAUAUUACGCUUU | -1.48 ± 0.086 | -0.159 ± 0.098 |
| UUGCAGCAAUAUUACGAGGG | -2.78 ± 0.15 | -0.707 ± 0.15 |
| UAGUAGCAAUAUUACGGGUA | -1.99 ± 0.12 | -0.398 ± 0.097 |
| CUCAAGCAAUAUUACGUAAG | -0.417 ± 0.054 | -0.102 ± 0.086 |
| AAUUAGCAAUAUUACGCAUG | -1.7 ± 0.15 | 0.109 ± 0.2 |
| UUAUAGCAAUAUUACGAACA | -1.51 ± 0.19 | -0.83 ± 0.17 |
| GGCAAGCAAUAUUACGGAGG | -4.1 ± 0.18 | -2.87 ± 0.16 |
| CCUUAGCAAUAUUACGUUAU | -2.42 ± 0.14 | -2.45 ± 0.28 |
| UAGAAGCAAUAUUACGCCCC | -3.03 ± 0.2 | -1.63 ± 0.23 |
| AAGAAGCAAUAUUACGUCGC | -3.47 ± 0.19 | -2.2 ± 0.16 |

| Sequence | self-splicing fitness (ln) (30 °C) | self-splicing fitness (ln) (37 °C) |
| --- | --- | --- |
| UGUCAGCAAUAUUACGGCUU | -0.428 ± 0.12 | -0.319 ± 0.17 |
| CGCCAGCAAUAUUACGUUCG | -1.18 ± 0.069 | 0.325 ± 0.086 |
| AUUCAGCAAUAUUACGUCAU | -0.863 ± 0.059 | 0.0811 ± 0.071 |
| CCGCAGCAAUAUUACGGUAG | -2.16 ± 0.086 | -1.11 ± 0.093 |
| UUCUAGCAAUAUUACGUAGC | – | -2.19 ± 0.31 |
| CAUGAGCAAUAUUACGAACU | -3.53 ± 0.19 | -2.95 ± 0.26 |
| CCGCAGCAAUAUUACGAACG | -0.44 ± 0.085 | 0.193 ± 0.1 |
| UUAAAGCAAUAUUACGUAGU | -3.87 ± 0.21 | -1.9 ± 0.18 |
| GGCAAGCAAUAUUACGACGU | -0.0263 ± 0.086 | 0.872 ± 0.12 |
| GGUUAGCAAUAUUACGGAUG | -0.648 ± 0.1 | -0.92 ± 0.14 |
| UGGGAGCAAUAUUACGGUCG | -1.47 ± 0.12 | -0.961 ± 0.2 |
| AAGGAGCAAUAUUACGUUUC | -3.26 ± 0.43 | -2.26 ± 0.43 |
| GUAUAGCAAUAUUACGUGCU | -2.77 ± 0.16 | -1.91 ± 0.22 |
| GCCCAGCAAUAUUACGAUUC | -1.56 ± 0.074 | -0.274 ± 0.09 |
| CUCGAGCAAUAUUACGGCGU | -1.96 ± 0.12 | -1.61 ± 0.18 |
| AUUAAGCAAUAUUACGCCAC | – | -1.53 ± 0.39 |
| AAGAAGCAAUAUUACGAGGU | -3.38 ± 0.33 | -2.42 ± 0.42 |
| UCCAAGCAAUAUUACGAGAA | -0.789 ± 0.16 | -0.569 ± 0.17 |
| GACGAGCAAUAUUACGUAGC | -4.54 ± 0.41 | -2.33 ± 0.25 |
| GACGAGCAAUAUUACGGACC | -1.34 ± 0.34 | -0.304 ± 0.33 |
| CCCAAGCAAUAUUACGCCGG | -3.22 ± 0.29 | -2.35 ± 0.32 |
| GCCAAGCAAUAUUACGGCGG | -3.3 ± 0.14 | -1.84 ± 0.16 |
| UAACAGCAAUAUUACGACAG | -0.741 ± 0.052 | -0.435 ± 0.073 |
| CGAGAGCAAUAUUACGGACG | -1.25 ± 0.23 | -0.913 ± 0.42 |
| UCCAAGCAAUAUUACGUCGA | -0.163 ± 0.075 | 0.376 ± 0.1 |
| CGUUAGCAAUAUUACGAAGC | -2.28 ± 0.43 | – |
